The target in experiment [1] is T1, recombinant BCMA (Sino Biological 10620-H03H-B) (human, UniProt Q02223 1-54).
T1 construct: Bought protein; also called human BCMA
T1 sequence (looked up): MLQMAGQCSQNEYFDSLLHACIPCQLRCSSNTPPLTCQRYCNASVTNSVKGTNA
The experiment in a line: ELISA, plate coated with recombinant BCMA. (In general: In an ELISA, binding on a coated surface is turned into a signal by an enzyme label.)

For experiment [2], the target named is T2, human CD38 extracellular domain (hCD38, recombinant, with AviTag) (human, UniProt P28907 43-300).
T2 construct: also called recombinant CD38; huCD38
The experiment in a line: ELISA on human CD38 ECD, EC50 class.

Positions count from the first letter of the chain named.

B1: Anti-BCMA (antibody, human IgG1, kappa)
heavy: not shown
light: DIQLTQTTSSLSASLGDRVTISCSASQDISNYLNWYQQKPDGTVELVIYYTSNLHSGVPSRFSGSGSGTDYSLTIGYLEPEDVATYYCQQYRKLPWTFGGGSKLEIKRTVAAPSVFIFPPSDEQLKSGTASVVCLLNNFYPREAKVQWKVDNALQSGNSQESVTEQDSKDSTYSLSSTLTLSKADYEKHKVYACEVTHQGLSSPVTKSFNRGEC
notes: also called Anti-BCMA BMK2 antibody; Anti-BCMA.BMK2
The term EC50 denotes the concentration giving half of the maximal effect. Regarding B1, in experiment [1], the EC50 was about 0.02 nM.

B2: Anti-BCMA.BMK2_ADCC.high (antibody, human IgG1, kappa)
heavy: EVQLQQSGAVLARPGASVKMSCKGSGYTFTNYWMHWVKQRPGQGLEWIGATYRGHSDTYYNQKFKGKAKLTAVTSTSTAYMELSSLTNEDSAVYYCTRGAIYNGYDVLDNWGQGTLVTVSSASTKGPSVFPLAPSSKSTSGGTAALGCLVKDYFPEPVTVSWNSGALTSGVHTFPAVLQSSGLYSLSSVVTVPSSSLGTQTYICNVNHKPSNTKVDKKVEPKSCDKTHTCPPCPAPELLGGPDVFLFPPKPKDTLMISRTPEVTCVVVDVSHEDPEVKFNWYVDGVEVHNAKTKPREEQYNSTYRVVSVLTVLHQDWLNGKEYKCKVSNKALPLPEEKTISKAKGQPREPQVYTLPPSRDELTKNQVSLTCLVKGFYPSDIAVEWESNGQPENNYKTTPPVLDSDGSFFLYSKLTVDKSRWQQGNVFSCSVMHEALHNHYTQKSLSLSPGK
light: DIQLTQTTSSLSASLGDRVTISCSASQDISNYLNWYQQKPDGTVELVIYYTSNLHSGVPSRFSGSGSGTDYSLTIGYLEPEDVATYYCQQYRKLPWTFGGGSKLEIKRRTVAAPSVFIFPPSDEQLKSGTASVVCLLNNFYPREAKVQWKVDNALQSGNSQESVTEQDSKDSTYSLSSTLTLSKADYEKHKVYACEVTHQGLSSPVTKSFNRGEC
notes: Monoclonal IgG1 with ADCC-high Fc mutations; also called ADCC-high variant of Anti-BCMA BMK2 antibody
B2: in experiment [1], the EC50 is about 0.02 nM.

B3: Anti-CD38 LC_Y92A (antibody, V domains shown)
VH: EVQLLESGGGLVQPGGSLRLSCAASGFSFNNYWIIWIRQAPGKGLEWVAAIYSPSGDIKYYADWAKGRFTVSKDNSKNTVYLQMNSLRAEDTAVYYCARELSGSSYEGYFESWGQGTLVTVSS
VL: DIQLTQSPSTLSASVGDRVTITCRSSQSVYGHNWLAWYQQKPGKAPKLLMYRASNLASGVPSRFSGSGSGTEFTLTISSVQPDDFATYYCQGYASGGSYAFGGGTKVEIK
notes: Alanine variant of h18E4-19 with the parent VH
As to B3, the EC50 in experiment [2] lay in the range of 0.02 to 0.1 nM.

B4: Anti-CD38 LC_Y96A (antibody, V domains shown)
VH: B3 VH
VL: B3 VL with A94Y, Y99A
notes: as for B3
Take B4: in experiment [2], the EC50 lay within 0.1 to 0.5 nM.

For the origin of these results see patent US20230183381A1 (VIRTUOSO BINCO, published 2023).
